Here are results for four molecules from patent publication WO2021218879A1 (dated 2021).

The target of assay [1] is T1, SARS-CoV-2-S1-his protein (SARS-CoV-2, UniProt P0DTC2 16-685).
Assay [2] deals with T2, SARS-CoV-2 RBD protein (SARS-CoV-2, UniProt P0DTC2 319-541).
For assay [3], the target named is T3, SARS-CoV-2 S full-length protein on pseudovirus (SARS-CoV-2, UniProt P0DTC2 14-1273). Kind of assay: cell-based or functional assay.
Assay [4] addresses T4, SARS-CoV-2 S1 protein on HF-nCoV-SPIKE-8D3 cells (SARS-CoV-2, UniProt P0DTC2 14-1273).
T4 construct: whole, on cells
Kind of assay: flow cytometry on HF-nCoV-SPIKE-8D3 cells, titrated antibody. (In general: A flow cytometer gives signals particle by particle.)

Assay [5] concerns the target T1, SARS-CoV-2-S1-his protein. Kind of assay: ELISA, S1 protein coated at varied concentration, antibody at 1 ug/mL.
Assay [6] has as its target T5, SARS-CoV-2 ECD protein (SARS-CoV-2, UniProt P0DTC2 14-1213).
T5 construct: extracellular domain
In words: ELISA, ECD protein coated at varied concentration, antibody at 1 ug/mL.

Assay [7] deals with T1, SARS-CoV-2-S1-his protein. This is another data set of the same source.
The target in assay [8] is T3, SARS-CoV-2 S full-length protein on …. Kind of assay: cell-based or functional assay. This is another data set of the same source.
In assay [9] the target is CD16a-AVI-His(V158)+BirA protein (UniProt P08637 17-208). Kind of assay: ELISA, biotinylated CD16a captured on avidin, titrated antibody. (An ELISA detects its analyte on a solid surface through an enzyme-linked reagent.)
Assay [10] concerns the target T6, CD32a-AVI-His(R131)+BirA protein (UniProt P12318 36-218).
T6 sequence: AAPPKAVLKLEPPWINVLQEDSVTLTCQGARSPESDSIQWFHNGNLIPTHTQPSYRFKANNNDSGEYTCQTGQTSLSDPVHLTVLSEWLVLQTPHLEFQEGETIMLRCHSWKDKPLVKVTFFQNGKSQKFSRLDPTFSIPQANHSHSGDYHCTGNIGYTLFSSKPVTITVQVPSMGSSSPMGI
Kind of assay: ELISA, biotinylated CD32a captured on avidin, titrated antibody.

In assay [11] the target is T7, CD32b-AVI-HIS+BirA protein (UniProt P31994 43-217).
T7 sequence: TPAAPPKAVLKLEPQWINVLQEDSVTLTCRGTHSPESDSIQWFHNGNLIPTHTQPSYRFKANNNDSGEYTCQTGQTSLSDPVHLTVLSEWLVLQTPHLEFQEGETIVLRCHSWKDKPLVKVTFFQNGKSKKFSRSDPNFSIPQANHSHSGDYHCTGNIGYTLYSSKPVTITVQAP
Kind of assay: ELISA, biotinylated CD32b captured on avidin, titrated antibody.

Assay [12] addresses T1, SARS-CoV-2-S1-his protein. In words: ELISA, S1 protein coated at varied concentration, antibody at 1 ug/mL. This is another data set of the same source.
In assay [13] the target is T1, SARS-CoV-2-S1-his protein. Kind of assay: BLI (OctetRED96e), biotinylated S1 on SA sensor, antibody in solution.
In assay [14] the target is T5, SARS-CoV-2 ECD protein. Kind of assay: ELISA, ECD protein coated at varied concentration, antibody at 1 ug/mL. This is another data set of the same source.
The target in assay [15] is T2, SARS-CoV-2 RBD protein. Kind of assay: ELISA, RBD protein coated at varied concentration, antibody at 1 ug/mL.
The target in assay [16] is T2, SARS-CoV-2 RBD protein. Kind of assay: BLI (OctetRED96e), biotinylated RBD on SA sensor, antibody in solution.
Assay [17] concerns the target CD64-AVI-His+BirA protein (UniProt P12314 16-288). In words: ELISA, biotinylated CD64 captured on avidin, titrated antibody.

Like-named read-outs stand apart in the source and are kept apart here.

CD16a-AVI-His(V158)+BirA protein, sequence (P08637 17-208 F176V limits assumed): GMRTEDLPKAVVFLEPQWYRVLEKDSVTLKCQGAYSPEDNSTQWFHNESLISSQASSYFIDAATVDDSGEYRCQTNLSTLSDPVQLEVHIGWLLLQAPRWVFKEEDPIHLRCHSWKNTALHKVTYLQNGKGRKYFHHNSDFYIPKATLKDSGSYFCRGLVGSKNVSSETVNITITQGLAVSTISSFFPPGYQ
CD64-AVI-His+BirA protein, sequence (P12314 16-288 limits assumed): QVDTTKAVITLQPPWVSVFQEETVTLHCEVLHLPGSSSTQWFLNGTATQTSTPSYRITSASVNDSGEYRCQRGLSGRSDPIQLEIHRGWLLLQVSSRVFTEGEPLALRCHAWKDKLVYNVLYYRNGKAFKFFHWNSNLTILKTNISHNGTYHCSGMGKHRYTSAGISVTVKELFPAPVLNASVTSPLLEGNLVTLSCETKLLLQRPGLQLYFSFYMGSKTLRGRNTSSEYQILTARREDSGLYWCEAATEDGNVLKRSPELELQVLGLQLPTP

B1: human-mouse chimeric antibody CoV2-mhB27 (antibody, V domains shown)
VH: EVKLVESGGGLVKPGGSLKLSCAASGFTFSNYGMSWVRQSPEKRLEWVAEISSGGSYTYYPDTVTGRFTISRDNAKNTLYLEMSSLRSEDTAMYYCARFRYDGGGGTVDYWGQGTSVTVSS
VL: not shown
notes: also called murine antibody CoV2-mhB27
For the molecule B1, the EC50 (usually the concentration giving half of the maximal effect) in assay [1] amounted to 0.024 µg/mL; with SARS-CoV-2 RBD protein [2], 0.044 µg/mL; in [4], 2.77 µg/mL; in assay [5] it was 0.116 µg/mL; with SARS-CoV-2 ECD protein [6], 0.307 µg/mL. For the same molecule, in assay [3], the “neutralization IC50, SARS-CoV-2 pseudovirus on 293FT-ACE2 cells (luciferase)” value is 8.7 ng/mL.

B2: humanized antibody CoV2-HB27 (antibody)
heavy: not shown
light: EIVLTQSPATLSLSPGERATLSCRASESVDNYGISFMNWFQQKPGQAPRLLIYAASNQGSGVPARFSGSGSGTDFSLTISSLEPEDFAVYFCQQSKEVPRTFGQGTKVEIKRTVAAPSVFIFPPSDEQLKSGTASVVCLLNNFYPREAKVQWKVDNALQSGNSQESVTEQDSKDSTYSLSSTLTLSKADYEKHKVYACEVTHQGLSSPVTKSFNRGEC
notes: also called IgG1 subtype CoV2-HB27 antibody; CoV2-HB27-IgG1
Regarding B2, the EC50 in assay [7] stood at 0.179 µg/mL; in [12], 0.183 µg/mL; with SARS-CoV-2 ECD protein [14] it was 0.972 µg/mL; in the assay with SARS-CoV-2 RBD protein [15] it was 0.0222 µg/mL. Besides, the “neutralization IC50, SARS-CoV-2 pseudovirus on 293FT-ACE2 cells (luciferase)” value in assay [8] is 5.9 ng/mL. Also, the binding result in [9], in assay [10] and in assay [11] was “binds” each time. In addition, the values for the Kd (in assay [13]; in the assay with SARS-CoV-2 RBD protein [16]) were 0.37 nM and 0.039 nM, respectively. For the same molecule, the koff (in general, the rate constant with which the complex falls apart) in [13] was 0.00039 s⁻¹; in the assay with SARS-CoV-2 RBD protein [16] it was 1.4e-05 s⁻¹. Also, the association rate constant (kon) (as a rule, a measure of how fast the partners come together) in assay [13] worked out at 1.1e+06 M⁻¹ s⁻¹; with SARS-CoV-2 RBD protein [16], 370000 M⁻¹ s⁻¹.

B3: CoV2-HB27-Ae0-IgG1 (antibody)
heavy: not shown
light: B2 light
notes: also called Ae0-IgG1 form antibody; defucosylated IgG1 subtype CoV2-HB27
On to B3, for which the binding result in assay [9], in [10] and in [11] was “binds” each time.

B4: CoV2-HB27-Fd6-IgG1 (antibody)
heavy: not shown
light: B2 light
notes: also called Fd6-IgG1 form antibody; reduced Fc function IgG1 subtype humanized antibody
For B4, the binding result in [17] is listed as “binds”; in assay [10], “no binding”; in assay [11], “no binding”.
